# Reference: patent US20250147051A1, “METHOD FOR DETECTING A TAU PROTEIN IN A SALIVA SAMPLE” (GTINVENT LIMITED, priority 2022, published 2025)
# B1: CE2: anti-tau clone referred to as CE2 or E1B8, SEQ ID NO: 366 (protein)
# scFv: QVQLQESGPSLVKPSQTLSLTCTVSGFSLTNYPVGWVRQAPGKALEWIGNIENDGSANYASALKSRLSITRDTSKNQVSLSLSSATTEDTAVYYCGREFGGSDGYTYFVDIDYWGPGLLVTVSSEGKSSGASGESKVDDQAVLTQPSSVSKSLGQSVSITCSGSSSNVGYGNYVSWFQQVPGSAPKILIYGATSRASGVPDRFSGSRSGNTATLTITSLQAEDEADYYCASYDGSSSGVFGSGTRLTVLG
# modifications: CE2/E1B8 amino acid sequence
# B2: E2E8: anti-tau clone, SEQ ID NO: 248 (protein)
# scFv: QVQLQESGPSLVKPSQTLSLTCTVSGFSLTDRGVAWVRQAPGKALEWVGTMRSGGTIDYNPALKSRLSITRDTSKSQVFLSLSSVTTEDMAMYYCARGYLSGDRYAWGRGLLVTVSSEGKSSGASGESKVDDQAVLTQPSSVSKSLGQSVSIACSGSRSDIGYGNYVSWFQQIPGSAPKLLIYDTNTRASGVPDRFSGARSGNTATLTINSLQAEDEADYYCANIDSSRSHLFGSGTRLTVLG
# modifications: E2E8 amino acid sequence
# Tests used:
# [1] = molecular target: dGA (Homo sapiens, UniProt P10636); test: Biacore X100 SPR binding kinetics of anti-tau scAbs (scAb captured via HuCk), analyte dGA; conditions: lead scAbs
# Procedure: (§1) Surface plasmon resonance (SPR) is widely regarded as the gold standard for real time measurement of protein-protein interactions such as antibody binding. All SPR experiments were carried out using a Biacore X100 machine and HBS EP+ running buffer (GE Healthcare). A ‘capture’ method was followed for affinity measurements, where an anti-human constant kappa chain (HuCk) antibody was conjugated to the surface of a CM5 sensor chip using an amine coupling kit and scAb molecules were immobilised via their HuCk domain. Amine coupling is a very common approach for immobilising the ligand to the chip surface. The chip surface has a dextran matrix derivatised with carboxyl groups, which after activation with N-hydroxysuccinimide (NHS) and 1-ethyl-3-(3-dimethylaminopropyl) carbodiimide (EDC), form reactive succinimide esters which allows the covalent capturing of the ligand via any available primary amine groups (e.g. Lysine) on the ligand (in this case anti-HuCk antibody). The capture antibody was diluted 1/100 in 10 mM Sodium acetate buffer pH 5.0 and passed over the activated chip surface for a period of at least 420 s. Final ligand immobilisation levels over 12,000 RU were deemed to be satisfactory.
# (§2) Following immobilisation, the level of each scAb to be captured was identified using the standard SPR equation with a theoretical RMax of 100 RU. Analyte MW refers to the molecular weight of hT40 or dGA/dGAE molecules, while ligand MW refers to the molecular weight of the scAbs tested. RLis the desired capture level and S refers to the stoichiometric ratio:
# (§3) The scAb to be tested was added only to flow cell 2 so that flow cell 1 could act as a control to subtract any interaction with the analyte and the chip surface. Both single and multi-cycle runs were utilised using wizards developed in the Biacore X100 control software which are both accepted methods of kinetic analysis (Karlsson, R., et al. Analyzing a kinetic titration series using affinity biosensors (2006) Analytical Biochemistry 349:136-47). The multi-cycle protocol was as follows-Three start-up cycles composed of an initial capture, to the desired level, of the scAb to be tested was performed followed by a 30 s injection of glycine buffer pH 2.0 after each cycle to regenerate the chip surface. The regeneration step removed any captured scAb whilst leaving the capture antibody intact and able to repeat the capture for the next cycle. Following three start-up cycles increasing concentrations (0.15625 nM-100 nM) of the target to be tested were added to the chip surface after the desired scAb capture. The target was added for a 120 s association period and 420 s dissociation period followed by another regeneration, 30 s injection of glycine buffer pH 2.0 in between each cycle.
# The single cycle kinetics protocol was similar and utilised the same level of scAb capture. Three start-up cycles were used followed by 5 increasing concentrations of the analyte (6.25 nM-100 nM) for an association period of 120 s followed by a dissociation period of 420 s for each concentration. In single cycle kinetics the regeneration step was performed only after the final analyte concentration was added. Binding responses were analysed in Biacore X100 evaluation software and data fitted to a 1:1 binding model to obtain kinetic and affinity characterisation.
# [2] = tested on: hT40; test: Binding ELISA with truncated tau proteins and 13mer peptide libraries for epitope mapping of anti-tau scAbs; parameters: species or system human; conditions: residue numbers of hT40
# Procedure: A series of binding ELISA was performed using various truncated versions of the tau protein and 13mer peptide libraries spanning the entire hT40 molecule for mapping the epitopes of anti-tau scAbs (Full list of protein antigens used is given in Table 14). In general, ELISA plates were coated with 1 μg/ml hT40 or dGA or dGAE or other truncated versions of the protein and in the case of biotinylated peptides, plates were coated with 5 μg/ml Streptavidin followed by 1 μg/ml biotinylated peptide. The plates were blocked with 2% MPBS and scAb samples added at desired starting concentrations and double diluted across the plate. Binding was detected using anti-Human C Kappa HRP conjugated secondary antibody and the resulting immunoreaction was developed and absorbance values measured as described above.
# Selected E specific scAbs and their specific binding to dGAE is shown below (FIG. 8A-E).
# Similarly, dGA binding ‘NS’, ‘S’ and ‘M’ group scAbs were subjected to further antigen binding ELISA using shorter tau proteins and biotinylated 13mer peptides as shown below (FIG. 10A-F) and (FIG. 11A-R).
# [3] = molecular target: dGAE (Homo sapiens, UniProt P10636); test: Biacore X100 SPR binding kinetics of anti-tau scAbs (scAb captured via HuCk), analyte dGAE; conditions: lead scAbs
# Procedure: as §1, §2
# as §3, with “Following three start-up cycles increasing concentrations (0.15625 nM-100 nM) of the target to be tested were added to the chip surface after the desired scAb capture. The target was added for a 120 s association period and 420 s dissociation period followed by another regeneration, 30 s injection of glycine buffer pH 2.0 in between each cycle.” left out
# (§4) The single cycle kinetics protocol was similar and utilised the same level of scAb capture. […] Binding responses were analysed in Biacore X100 evaluation software and data fitted to a 1:1 binding model to obtain kinetic and affinity characterisation.
# [4] = molecular target: hT40 (Homo sapiens, UniProt P10636); test: Biacore X100 SPR binding kinetics of anti-tau scAbs (scAb captured via HuCk), analyte hT40; conditions: lead scAbs, Table 23
# Procedure: as §1, with “The chip surface has a dextran matrix derivatised with carboxyl groups, which after activation with N-hydroxysuccinimide (NHS) and 1-ethyl-3-(3-dimethylaminopropyl) carbodiimide (EDC), form reactive succinimide esters which allows the covalent capturing of the ligand via any available primary amine groups (e.g. Lysine) on the ligand (in this case anti-HuCk antibody).” left out
# Following immobilisation, the level of each scAb to be captured was identified using the standard SPR equation with a theoretical RMax of 100 RU. Analyte MW refers to the molecular weight of hT40 or dGA/dGAE molecules, while ligand MW refers to the molecular weight of the scAbs tested. […]
# as §4
# Chain of dGAE (P10636 614-708): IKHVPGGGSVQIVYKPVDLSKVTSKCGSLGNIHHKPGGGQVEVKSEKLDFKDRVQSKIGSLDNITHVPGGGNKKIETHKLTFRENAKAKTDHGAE
# Chain of dGA (P10636 614-707): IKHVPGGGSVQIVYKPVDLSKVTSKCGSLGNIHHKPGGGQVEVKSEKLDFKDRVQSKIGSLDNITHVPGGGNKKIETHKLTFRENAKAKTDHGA
# Chain of hT40 (Homo sapiens, UniProt P10636) (P10636 1-441 isoform P10636-8): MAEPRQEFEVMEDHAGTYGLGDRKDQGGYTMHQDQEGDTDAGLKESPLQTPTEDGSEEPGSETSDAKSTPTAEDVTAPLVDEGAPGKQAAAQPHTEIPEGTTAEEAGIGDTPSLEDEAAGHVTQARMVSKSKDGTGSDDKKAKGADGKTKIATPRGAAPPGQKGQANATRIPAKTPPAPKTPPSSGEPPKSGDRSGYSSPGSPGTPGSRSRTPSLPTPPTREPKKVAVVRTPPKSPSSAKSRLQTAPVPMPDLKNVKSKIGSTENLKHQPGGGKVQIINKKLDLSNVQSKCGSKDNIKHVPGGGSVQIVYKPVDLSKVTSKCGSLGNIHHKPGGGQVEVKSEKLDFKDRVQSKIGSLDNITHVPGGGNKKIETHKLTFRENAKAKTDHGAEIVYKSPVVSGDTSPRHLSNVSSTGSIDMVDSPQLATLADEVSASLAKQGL
Molecule,ka ([1]; Table 24),"dissociation rate constant (kd) ([1]; Table 24, dissociation rate)",Tau proteins/fragments with positive scAb reactivity [2],ka ([3]; Table 24),"dissociation rate constant (koff) ([3]; Table 24, dissociation rate)",T441 binding (result in words) [4]
B1,137000 M⁻¹ s⁻¹,0.00242 s⁻¹,"297-390 (dGA), 297-391 and (dGAE), 313-336",,,
B2,,,,477000 M⁻¹ s⁻¹,0.0001915 s⁻¹,No T441 binding
